Experiment [1] concerns the target recombinant LIF (Peprotech, 300-05) (UniProt P15018 23-202). Description: ELISA, cytokine coated. For orientation: ELISA stands for enzyme-linked immunosorbent assay.
Experiment [2] concerns the target T1, recombinant IL-31 (Peprotech, 200-31) (UniProt Q6EBC2 24-164).
T1 sequence (looked up): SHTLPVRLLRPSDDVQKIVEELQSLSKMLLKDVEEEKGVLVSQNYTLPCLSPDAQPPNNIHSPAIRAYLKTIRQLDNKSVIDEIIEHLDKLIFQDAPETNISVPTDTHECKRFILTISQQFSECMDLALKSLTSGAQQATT
In words: ELISA, cytokine coated.

Experiment [3] has as its target T2, recombinant OSM (Genscript-z03132) (UniProt P13725 26-234, limits assumed).
T2 sequence (looked up): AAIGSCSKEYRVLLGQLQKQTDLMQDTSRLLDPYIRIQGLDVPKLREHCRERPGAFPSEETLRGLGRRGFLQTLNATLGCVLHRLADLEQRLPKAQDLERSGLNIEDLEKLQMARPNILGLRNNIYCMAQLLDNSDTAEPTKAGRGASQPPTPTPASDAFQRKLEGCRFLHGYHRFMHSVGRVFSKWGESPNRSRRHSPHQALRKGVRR
In words: ELISA, cytokine coated.

For experiment [4], the target named is T3, recombinant CT-1 (R&D systems, 612-CD-010) (UniProt Q16619 2-201, limits assumed).
T3 sequence (looked up): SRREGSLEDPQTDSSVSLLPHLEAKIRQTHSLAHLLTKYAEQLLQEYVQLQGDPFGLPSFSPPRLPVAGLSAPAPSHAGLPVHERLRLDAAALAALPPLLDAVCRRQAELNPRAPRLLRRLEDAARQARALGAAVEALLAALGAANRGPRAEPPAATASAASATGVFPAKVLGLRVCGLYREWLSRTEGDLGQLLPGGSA
Description: ELISA, cytokine coated.

In experiment [5] the target is recombinant IL-6 (Sinobiological-10395-HNAE) (UniProt P05231 30-212). Description: ELISA, cytokine coated.
Experiment [6] has as its target T4, recombinant CLC (R&D systems, 962-CL-050) (UniProt Q9UBD9 28-225).
T4 sequence (looked up): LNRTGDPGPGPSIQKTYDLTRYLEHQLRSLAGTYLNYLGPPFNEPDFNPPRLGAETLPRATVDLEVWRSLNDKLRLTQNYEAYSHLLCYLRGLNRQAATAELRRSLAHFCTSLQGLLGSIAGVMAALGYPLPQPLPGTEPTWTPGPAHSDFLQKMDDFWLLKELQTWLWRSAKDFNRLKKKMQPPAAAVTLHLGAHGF
In words: ELISA, cytokine coated.

Experiment [7] deals with T5, IL-11 protein (UniProt P20809 22-199, limits assumed).
T5 construct: also called IL-11 antigen
T5 sequence (looked up): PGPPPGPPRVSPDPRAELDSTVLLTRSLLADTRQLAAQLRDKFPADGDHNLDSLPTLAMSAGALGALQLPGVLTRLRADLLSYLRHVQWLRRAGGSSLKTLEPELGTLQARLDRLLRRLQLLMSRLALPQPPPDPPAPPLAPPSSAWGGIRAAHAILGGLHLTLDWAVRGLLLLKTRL
Description: SPR (Biacore), antibody captured, 400 nM IL-11 as analyte. The method, then: (§1) The measure method included the steps of capturing the humanized antibody at a flow rate of 10 ul/min. […] Finally the chip was regenerated with 10 mM glycine buffer.
For orientation: In SPR one partner is held on a chip, and binding of the other changes the refractive index at the surface.

The target in experiment [8] is T6, IL-11-Fc protein (UniProt P20809 22-199, limits assumed).
T6 construct: also called IL-11 recombinant protein with Fc tag; not shown: Fc tag
T6 sequence (looked up): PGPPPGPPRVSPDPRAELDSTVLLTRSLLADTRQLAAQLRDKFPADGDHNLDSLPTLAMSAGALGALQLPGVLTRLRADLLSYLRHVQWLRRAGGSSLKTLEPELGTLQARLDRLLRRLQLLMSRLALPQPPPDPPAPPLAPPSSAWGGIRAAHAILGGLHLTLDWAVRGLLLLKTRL
In words: flow competition: IL-11-Fc + antibody gradient on membrane-IL-11R CHO cells; 5-20E11-5F2 antibody. The source says:
The secondary antibody used in the detection was a secondary antibody conjugated with a FITC fluorophore (Goat-anti-Fc-FITC) (Abcam, ab98529).

Experiment [9] concerns the target T5, IL-11 protein. In words: flow competition: IL-11 + antibody on IL-11R cells; lower = more blocking. The source says:
(§2) Cell lines with high secretion of specific antibody were selected for expanded culture and cryopreservation.

In experiment [10] the target is T5, IL-11 protein. In words: SPR (Biacore), IgG captured, IL-11 6.25-400 nM as analyte. The method, then: as §1
For experiment [11], the target named is T5, IL-11 protein. Description: ELISA, monoclonal hybridoma supernatant on IL-11.
From the text: as §2

The record followed here is patent US20230257458A1 (SUNSHINE LAKE PHARMA, published 2023).

recombinant LIF (Peprotech, 300-05), sequence (P15018 23-202 limits assumed): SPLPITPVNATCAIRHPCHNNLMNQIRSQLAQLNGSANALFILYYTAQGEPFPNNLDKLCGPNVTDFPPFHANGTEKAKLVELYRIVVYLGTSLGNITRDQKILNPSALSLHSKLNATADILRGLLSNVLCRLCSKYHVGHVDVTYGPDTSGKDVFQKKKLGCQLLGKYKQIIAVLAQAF

B1: 5-20E11-5F2 (antibody, human IgG1, kappa, V domains shown)
VH: QVQLQQSGAELVRPGTSAKISCKASDYTFTNYWLGWLKQRPGHGLEWIGHIYPGGGYTNYNEKFKGKATLTADTSSSTAYMQLSSLTSEDSAVYFCARVRSGNDALDFWGQGTSVTVSS
VL: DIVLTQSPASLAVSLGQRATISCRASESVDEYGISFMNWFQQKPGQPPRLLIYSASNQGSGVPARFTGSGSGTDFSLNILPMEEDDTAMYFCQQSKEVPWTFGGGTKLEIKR
notes: also called 5-20E11-5F2 antibody; 5-20E11-5F2 mAb
As a reminder, the Kd is the free concentration of one partner at which half of the binding sites on the other are occupied at equilibrium, for simple one-to-one binding. A word on the koff: it is the rate constant with which the complex falls apart. As usually defined, the kon is the second-order rate constant of association. In general, IC50 refers to the midpoint of a concentration-inhibition curve. With B1, the binding result in experiment [1], in [2], in [3], in experiment [4], in experiment [5] and in experiment [6] was “no binding” each time. In addition, the Kd in experiment [7] was found to be 2.09 nM; in [10] it was 6.41 nM. Moreover, the koff in experiment [7] was 0.000122 s⁻¹; in [10], 0.000433 s⁻¹. In addition, the values for the kon in [7] and in [10] were 58400 M⁻¹ s⁻¹ and 67600 M⁻¹ s⁻¹, respectively. In experiment [8], the IC50 is approximately 21 µg/mL. Besides, the “FITC Mean” value in experiment [9] was 3110. Moreover, the OD450 in experiment [11] is 1.6.
